Assay results from the supplement of paper PMC10065799, “High-throughput profiling of sequence recognition by tyrosine kinases and SH2 domains using bacterial peptide display” (eLife, 2023).

The sequences below were run on c-Abl (mouse) (assay: phosphorylation enrichment, bacterial display (enrichment ratio); higher = better substrate or ligand; peptides without Tyr show the background).
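Note: 11-residue human phosphosite peptides and single-mutation variants displayed on the E. coli surface, counted by deep sequencing, each peptide's frequency after selection divided by its frequency in the unselected input library; frequency after pTyr selection over input frequency; kinase dosed for 20-30% of maximal phosphorylation in three min.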

Sequence	phosphorylation enrichment
APRKVYDTQDD [ZFPL1_Y215_R218Q]	0.766
GCVRMYELVHR [GLE1_Y135]	0.754
LSIQCYLRASD [HMGCS2_Y262_L266S]	1.87
QPGTDYKIYLY [FN1_Y1970]	1.04
DSNLIYSQIWS [FCRL3_Y662_P660L]	15.4
AASTDYFKRGD [PDHA1_Y242_YF]	0.421
KDFTKYVAYIE [KDM4B_Y31_N29T]	0.679
TLQWMYGCDVG [HLA-B_Y123_S121W]	1.05
SVVVPYKPPEV [TP53_Y220_E221K]	0.584
CEAMEYQESKQ [BTK_Y511_L512Q]	0.765
PFTRNYFVWAV [CYBA_Y87_R90W_YF]	4.62
EFISEYCGEII [EZH2_Y641]	0.905
EQAERYDDMAA [YWHAG_Y20]	0.653
PSELFYSKISP [SMG1_Y2254_G2258S_YF]	3.5
AGARMYGVLPW [PLP1_Y207_D203G]	0.667
VVTGPYEKPSL [KIR3DS1_Y221_L220P]	0.966
GDRPVYSEDEQ [CHST6_Y362_Y358D]	1.06

Sequence	phosphorylation enrichment
SVVVPYEPSEV [TP53_Y220_P223S]	0.619
IIWDSYTTNKV [GNB1_Y85]	0.687
SSAKTYSRMRL [NBEAL2_Y1835_E1833K]	0.542
LGPSDYFGETA [PRKAR1A_Y323_I327T]	0.448
CTSIHYNYMCN [TP53_Y234_T231S]	0.535
LAIERYVVVCK [RHO_Y136]	1.51
NGVSYYINLCQ [IGF2R_Y2025]	0.916
LWQTIYNLEAE [TNNT2_Y251_S249T]	1.21
FPPTHYIRRMP [SLC4A11_Y820_V824M_YF]	0.718
GYQPDYGQPAG [SYP_Y278]	0.556
MCTVDYLLRLQ [RYR1_Y3921_I3916M]	0.866
FGGLRYGFGVL [KRTAP20-2_Y13_YF]	0.608
PGVDIYVSPNM [PADI3_Y51_I52V]	2.3
CYVYYYSYLLK [PTEN_Y178_R173C]	1.66
DLAAQYTTVGH [SGSH_Y240_R245H]	0.593
KGSEGYLAATF [NF1_Y2503_YF]	0.634

These sequences were tested against FGFR1 (UniProt P11362) in the same assay as above.
Chain of FGFR1 (P11362 whole entry, looked up): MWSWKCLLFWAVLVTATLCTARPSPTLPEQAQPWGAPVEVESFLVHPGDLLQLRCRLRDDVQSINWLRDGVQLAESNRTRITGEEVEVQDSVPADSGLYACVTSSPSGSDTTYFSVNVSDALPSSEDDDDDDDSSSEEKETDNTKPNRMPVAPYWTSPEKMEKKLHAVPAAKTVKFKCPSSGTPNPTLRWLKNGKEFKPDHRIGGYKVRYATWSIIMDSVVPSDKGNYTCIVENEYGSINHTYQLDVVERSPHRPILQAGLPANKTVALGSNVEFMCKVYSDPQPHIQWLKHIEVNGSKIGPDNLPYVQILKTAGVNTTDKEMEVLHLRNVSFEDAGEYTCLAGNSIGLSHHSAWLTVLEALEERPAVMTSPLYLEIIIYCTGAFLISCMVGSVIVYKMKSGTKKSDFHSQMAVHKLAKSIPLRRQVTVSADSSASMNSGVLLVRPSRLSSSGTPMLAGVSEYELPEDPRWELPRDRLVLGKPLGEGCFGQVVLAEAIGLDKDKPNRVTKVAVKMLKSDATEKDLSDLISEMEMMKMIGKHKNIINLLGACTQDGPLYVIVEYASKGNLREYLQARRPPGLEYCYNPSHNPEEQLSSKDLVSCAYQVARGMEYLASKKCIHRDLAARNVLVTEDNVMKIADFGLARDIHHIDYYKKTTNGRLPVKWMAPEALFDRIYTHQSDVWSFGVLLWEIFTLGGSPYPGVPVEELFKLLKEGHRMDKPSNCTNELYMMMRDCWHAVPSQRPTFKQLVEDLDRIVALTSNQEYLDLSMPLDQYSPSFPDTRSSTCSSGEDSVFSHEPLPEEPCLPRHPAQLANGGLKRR

Sequence	phosphorylation enrichment
APRKVYDTQDD [ZFPL1_Y215_R218Q]	0.549
GCVRMYELVHR [GLE1_Y135]	0.498
LSIQCYLRASD [HMGCS2_Y262_L266S]	1.99
QPGTDYKIYLY [FN1_Y1970]	0.705
DSNLIYSQIWS [FCRL3_Y662_P660L]	7.38
AASTDYFKRGD [PDHA1_Y242_YF]	0.402
KDFTKYVAYIE [KDM4B_Y31_N29T]	0.604
TLQWMYGCDVG [HLA-B_Y123_S121W]	0.396
SVVVPYKPPEV [TP53_Y220_E221K]	0.477
CEAMEYQESKQ [BTK_Y511_L512Q]	0.723
PFTRNYFVWAV [CYBA_Y87_R90W_YF]	13.5
EFISEYCGEII [EZH2_Y641]	0.604
EQAERYDDMAA [YWHAG_Y20]	0.547
PSELFYSKISP [SMG1_Y2254_G2258S_YF]	3.79
AGARMYGVLPW [PLP1_Y207_D203G]	0.489
VVTGPYEKPSL [KIR3DS1_Y221_L220P]	0.581
GDRPVYSEDEQ [CHST6_Y362_Y358D]	0.667

Sequence	phosphorylation enrichment
SVVVPYEPSEV [TP53_Y220_P223S]	0.52
IIWDSYTTNKV [GNB1_Y85]	0.489
SSAKTYSRMRL [NBEAL2_Y1835_E1833K]	0.34
LGPSDYFGETA [PRKAR1A_Y323_I327T]	0.585
CTSIHYNYMCN [TP53_Y234_T231S]	0.67
LAIERYVVVCK [RHO_Y136]	0.766
NGVSYYINLCQ [IGF2R_Y2025]	0.525
LWQTIYNLEAE [TNNT2_Y251_S249T]	1.15
FPPTHYIRRMP [SLC4A11_Y820_V824M_YF]	0.498
GYQPDYGQPAG [SYP_Y278]	0.465
MCTVDYLLRLQ [RYR1_Y3921_I3916M]	0.526
FGGLRYGFGVL [KRTAP20-2_Y13_YF]	0.733
PGVDIYVSPNM [PADI3_Y51_I52V]	0.809
CYVYYYSYLLK [PTEN_Y178_R173C]	1.8
DLAAQYTTVGH [SGSH_Y240_R245H]	0.462
KGSEGYLAATF [NF1_Y2503_YF]	0.444

The sequences below were run against Fyn (UniProt P06241) in the same assay as above.
Chain of Fyn (P06241 whole entry, looked up): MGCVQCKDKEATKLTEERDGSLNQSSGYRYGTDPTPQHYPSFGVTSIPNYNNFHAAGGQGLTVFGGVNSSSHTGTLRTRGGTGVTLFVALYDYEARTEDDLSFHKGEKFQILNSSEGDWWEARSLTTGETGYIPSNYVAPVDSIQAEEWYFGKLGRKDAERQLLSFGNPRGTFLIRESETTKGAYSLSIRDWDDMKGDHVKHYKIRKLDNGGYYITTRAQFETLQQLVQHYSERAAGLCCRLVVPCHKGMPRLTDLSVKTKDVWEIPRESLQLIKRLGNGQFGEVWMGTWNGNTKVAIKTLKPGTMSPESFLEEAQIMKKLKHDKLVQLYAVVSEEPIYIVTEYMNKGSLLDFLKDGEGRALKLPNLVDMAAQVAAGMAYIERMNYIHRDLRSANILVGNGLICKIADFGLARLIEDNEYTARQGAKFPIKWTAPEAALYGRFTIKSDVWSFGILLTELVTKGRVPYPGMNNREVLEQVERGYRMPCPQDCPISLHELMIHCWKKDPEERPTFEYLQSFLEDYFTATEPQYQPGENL

Sequence	phosphorylation enrichment
APRKVYDTQDD [ZFPL1_Y215_R218Q]	0.495
GCVRMYELVHR [GLE1_Y135]	0.599
LSIQCYLRASD [HMGCS2_Y262_L266S]	2.73
QPGTDYKIYLY [FN1_Y1970]	0.715
DSNLIYSQIWS [FCRL3_Y662_P660L]	9.04
AASTDYFKRGD [PDHA1_Y242_YF]	0.462
KDFTKYVAYIE [KDM4B_Y31_N29T]	0.541
TLQWMYGCDVG [HLA-B_Y123_S121W]	0.437
SVVVPYKPPEV [TP53_Y220_E221K]	0.458
CEAMEYQESKQ [BTK_Y511_L512Q]	0.63
PFTRNYFVWAV [CYBA_Y87_R90W_YF]	1.56
EFISEYCGEII [EZH2_Y641]	0.692
EQAERYDDMAA [YWHAG_Y20]	0.537
PSELFYSKISP [SMG1_Y2254_G2258S_YF]	2.06
AGARMYGVLPW [PLP1_Y207_D203G]	4.8
VVTGPYEKPSL [KIR3DS1_Y221_L220P]	0.473
GDRPVYSEDEQ [CHST6_Y362_Y358D]	0.698

Sequence	phosphorylation enrichment
SVVVPYEPSEV [TP53_Y220_P223S]	0.554
IIWDSYTTNKV [GNB1_Y85]	0.46
SSAKTYSRMRL [NBEAL2_Y1835_E1833K]	0.406
LGPSDYFGETA [PRKAR1A_Y323_I327T]	0.518
CTSIHYNYMCN [TP53_Y234_T231S]	0.42
LAIERYVVVCK [RHO_Y136]	0.597
NGVSYYINLCQ [IGF2R_Y2025]	0.449
LWQTIYNLEAE [TNNT2_Y251_S249T]	10.9
FPPTHYIRRMP [SLC4A11_Y820_V824M_YF]	0.561
GYQPDYGQPAG [SYP_Y278]	0.384
MCTVDYLLRLQ [RYR1_Y3921_I3916M]	0.546
FGGLRYGFGVL [KRTAP20-2_Y13_YF]	0.348
PGVDIYVSPNM [PADI3_Y51_I52V]	1.52
CYVYYYSYLLK [PTEN_Y178_R173C]	0.734
DLAAQYTTVGH [SGSH_Y240_R245H]	0.585
KGSEGYLAATF [NF1_Y2503_YF]	0.501

The sequences below were run on Fer (mouse) in the same assay as above.

Sequence	phosphorylation enrichment
APRKVYDTQDD [ZFPL1_Y215_R218Q]	0.67
GCVRMYELVHR [GLE1_Y135]	4.34
LSIQCYLRASD [HMGCS2_Y262_L266S]	2.44
QPGTDYKIYLY [FN1_Y1970]	0.792
DSNLIYSQIWS [FCRL3_Y662_P660L]	15.7
AASTDYFKRGD [PDHA1_Y242_YF]	0.363
KDFTKYVAYIE [KDM4B_Y31_N29T]	0.434
TLQWMYGCDVG [HLA-B_Y123_S121W]	0.566
SVVVPYKPPEV [TP53_Y220_E221K]	0.471
CEAMEYQESKQ [BTK_Y511_L512Q]	0.609
PFTRNYFVWAV [CYBA_Y87_R90W_YF]	1.97
EFISEYCGEII [EZH2_Y641]	0.678
EQAERYDDMAA [YWHAG_Y20]	0.501
PSELFYSKISP [SMG1_Y2254_G2258S_YF]	11.3
AGARMYGVLPW [PLP1_Y207_D203G]	0.447
VVTGPYEKPSL [KIR3DS1_Y221_L220P]	0.665
GDRPVYSEDEQ [CHST6_Y362_Y358D]	0.653

Sequence	phosphorylation enrichment
SVVVPYEPSEV [TP53_Y220_P223S]	0.685
IIWDSYTTNKV [GNB1_Y85]	0.665
SSAKTYSRMRL [NBEAL2_Y1835_E1833K]	0.379
LGPSDYFGETA [PRKAR1A_Y323_I327T]	0.422
CTSIHYNYMCN [TP53_Y234_T231S]	0.676
LAIERYVVVCK [RHO_Y136]	1.32
NGVSYYINLCQ [IGF2R_Y2025]	0.548
LWQTIYNLEAE [TNNT2_Y251_S249T]	0.855
FPPTHYIRRMP [SLC4A11_Y820_V824M_YF]	0.445
GYQPDYGQPAG [SYP_Y278]	0.38
MCTVDYLLRLQ [RYR1_Y3921_I3916M]	0.504
FGGLRYGFGVL [KRTAP20-2_Y13_YF]	0.351
PGVDIYVSPNM [PADI3_Y51_I52V]	0.708
CYVYYYSYLLK [PTEN_Y178_R173C]	0.669
DLAAQYTTVGH [SGSH_Y240_R245H]	0.519
KGSEGYLAATF [NF1_Y2503_YF]	0.45
